From the supplement of paper PMC10567573

B1: MLL5 (parent)
chain: TYLCERCQPRNLDKERAVLLQRRK

Variants of: B1
Experiment: protein stability index of a GFP-peptide fusion (GPS, HEK-293T) (PSI 1-6); higher = more stable
Conditions: c terminus: a fixed tail appended
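Note: lentivirally expressed fusions sorted by FACS into six bins by GFP to DsRed ratio, PSI derived from sequencing read proportions per bin multiplied by bin number.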

Row | Variant | protein stability index
1 | N11T | 3.08
2 | N11L | 2.12
3 | N11P | 2.18
4 | N11Y | 1.43
5 | N11R | 2.15
6 | N11W | 2.09
7 | N11Q | 2.41
8 | N11M | 2.04
9 | N11K | 2.05
10 | N11S | 2.32
11 | R23P | 2.5
12 | R23E | 1.72
13 | R23D | 1.76
14 | R23I | 2.57
15 | R23L | 1.47
16 | R23S | 2.35
17 | R23H | 2.05
18 | R23N | 2.36
19 | R23Y | 1.48
20 | R23K | 2.91
21 | R23W | 2.39
22 | R23M | 2.16
23 | R23G | 2.1
24 | R23F | 2.03
25 | R23C | 2.31

Row | Variant | protein stability index
26 | D13Y | 2.48
27 | D13F | 1.78
28 | D13E | 3.13
29 | D13H | 2.64
30 | D13Q | 2.53
31 | D13M | 2
32 | D13V | 1.88
33 | D13A | 2.7
34 | D13G | 2.71
35 | D13W | 2.16
36 | D13C | 2.24
37 | D13P | 1.92
38 | D13K | 2.71
39 | D13S | 2.76
40 | D13N | 2.47
41 | D13I | 2.23
42 | V18H | 2.16
43 | V18I | 2.68
44 | V18C | 2.11
45 | V18T | 2.82
46 | V18R | 3.18
47 | V18N | 1.93
48 | V18S | 2.21
49 | V18W | 2.2
50 | V18E | 2.52

Row | Variant | protein stability index
51 | V18P | 1.6
52 | V18Q | 2.19
53 | V18L | 3.05
54 | V18M | 2.19
55 | V18A | 1.81
56 | V18Y | 1.65
57 | V18D | 2.73
58 | V18F | 1.96
59 | Q21K | 2.64
60 | Q21G | 2.91
61 | Q21H | 3.22
62 | Q21Y | 2.04
63 | Q21I | 1.73
64 | Q21N | 2.42
65 | Q21E | 2.09
66 | Q21R | 2.51
67 | Q21S | 1.99
68 | Q21V | 1.84
69 | Q21T | 1.81
70 | Q21M | 2.46
71 | Q21C | 2.02
72 | Q21D | 2.78
73 | K24A | 1.73
74 | K24P | 2.38
75 | K24L | 2.17

Row | Variant | protein stability index
76 | K24M | 1.81
77 | K24G | 1.69
78 | K24D | 2.36
79 | K24E | 2.25
80 | K24I | 1.6
81 | K24H | 2.74
82 | K24W | 3.28
83 | K24T | 2.28
84 | K24Y | 1.91
85 | K24Q | 2.65
86 | R22L | 1.89
87 | R22W | 2.14
88 | R22Y | 1.97
89 | R22N | 1.99
90 | R22V | 1.98
91 | R22H | 2.28
92 | R22P | 2.9
93 | R22I | 2.44
94 | R22S | 2.34
95 | R22K | 2.03
96 | R22E | 1.76
97 | R22A | 2
98 | R22T | 2.1
99 | R22M | 2.18
100 | R22C | 2.08

Row | Variant | protein stability index
101 | R22D | 2.2
102 | R22G | 1.98
103 | K14G | 1.77
104 | K14F | 2.34
105 | K14M | 3.36
106 | K14S | 2.51
107 | K14P | 1.96
108 | K14D | 1.98
109 | K14Q | 2.23
110 | K14L | 3.62
111 | K14Y | 2.64
112 | K14A | 2.29
113 | K14N | 2.29
114 | K14I | 1.87
115 | K14H | 1.74
116 | K14V | 3.34
117 | K14R | 2.19
118 | K14C | 1.93
119 | K14T | 3.29
120 | K14W | 2.89
121 | A17T | 1.95
122 | A17V | 2.42
123 | A17W | 2.16
124 | A17Y | 2.18
125 | A17K | 2.26

Row | Variant | protein stability index
126 | A17F | 2.07
127 | A17P | 1.77
128 | A17D | 2.25
129 | A17S | 2.32
130 | A17C | 2.08
131 | A17G | 1.78
132 | A17M | 2.58
133 | A17L | 1.45
134 | A17N | 2.65
135 | A17H | 2
136 | A17Q | 1.88
137 | L19D | 2.42
138 | L19F | 1.7
139 | L19K | 2.18
140 | L19T | 2.07
141 | L19M | 2.71
142 | L19A | 1.76
143 | L19N | 2.08
144 | L19H | 2.54
145 | L19C | 2.03
146 | L19R | 2.52
147 | L19V | 1.96
148 | L19G | 3.37
149 | L19W | 1.93
150 | L19P | 1.85

Row | Variant | protein stability index
151 | L19Q | 2.54
152 | L19S | 2.9
153 | L19E | 2.76
154 | L19Y | 2.83
155 | R16K | 2.1
156 | R16C | 1.45
157 | R16H | 2.61
158 | R16Y | 1.79
159 | R16I | 1.94
160 | R16L | 3.06
161 | R16T | 2.25
162 | R16A | 2.49
163 | R16W | 1.69
164 | R16S | 1.36
165 | R16P | 2.24
166 | R16G | 2.32
167 | R16V | 2.27
168 | R16E | 1.92
169 | R16N | 2.01
170 | R16M | 3.23
171 | R16F | 2.09
172 | E15R | 2.34
173 | E15D | 2.42
174 | E15L | 2.05
175 | E15H | 2.71

Row | Variant | protein stability index
176 | E15K | 3.21
177 | E15G | 2.71
178 | E15Q | 2.24
179 | E15P | 2.12
180 | E15W | 1.94
181 | E15N | 1.6
182 | E15T | 2.32
183 | E15C | 1.45
184 | E15I | 2.2
185 | E15S | 2.46
186 | E15F | 2.14
187 | L20S | 1.9
188 | L20C | 2.3
189 | L20Y | 1.76
190 | L20H | 2.23
191 | L20E | 2.7
192 | L20G | 2.52
193 | L20A | 2.37
194 | L20T | 1.58
195 | L20F | 2.3
196 | L20W | 2.31
197 | L20N | 2.68
198 | L20P | 2.08
199 | L20M | 2.4
200 | L20D | 3.55

Row | Variant | protein stability index
201 | L12W | 1.61
202 | L12K | 2.96
203 | L12R | 2.02
204 | L12V | 2.22
205 | L12N | 2.25
206 | L12T | 2.63
207 | L12P | 2.69
208 | L12Q | 3.79
209 | L12Y | 1.71
210 | L12C | 1.85
211 | L12H | 1.98
212 | L12E | 3.2
213 | L12I | 2.17
214 | L12F | 2.11
215 | L12D | 2.01
216 | L12G | 2.71
217 | L12M | 3.49
218 | L12A | 2.56
